Substitutions are numbered along the chain they refer to.
T1: bitter receptor mT2R5 (Mus musculus, UniProt Q9JKT4)
T1 construct: expressed in transfected cells
T1 sequence (Q9JKT4 1-300): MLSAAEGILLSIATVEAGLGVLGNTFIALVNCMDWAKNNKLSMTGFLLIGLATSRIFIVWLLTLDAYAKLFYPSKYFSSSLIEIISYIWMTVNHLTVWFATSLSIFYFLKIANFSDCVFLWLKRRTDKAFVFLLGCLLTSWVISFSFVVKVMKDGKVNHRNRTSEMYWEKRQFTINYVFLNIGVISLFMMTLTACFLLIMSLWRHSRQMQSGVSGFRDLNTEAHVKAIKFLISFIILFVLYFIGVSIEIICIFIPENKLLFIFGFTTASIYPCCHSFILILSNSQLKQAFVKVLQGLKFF

T2: mouse olfactory receptor 17 (Mus musculus, UniProt Q9QWU6)
T2 construct: expressed in transfected cells
T2 sequence (Q9QWU6 1-327): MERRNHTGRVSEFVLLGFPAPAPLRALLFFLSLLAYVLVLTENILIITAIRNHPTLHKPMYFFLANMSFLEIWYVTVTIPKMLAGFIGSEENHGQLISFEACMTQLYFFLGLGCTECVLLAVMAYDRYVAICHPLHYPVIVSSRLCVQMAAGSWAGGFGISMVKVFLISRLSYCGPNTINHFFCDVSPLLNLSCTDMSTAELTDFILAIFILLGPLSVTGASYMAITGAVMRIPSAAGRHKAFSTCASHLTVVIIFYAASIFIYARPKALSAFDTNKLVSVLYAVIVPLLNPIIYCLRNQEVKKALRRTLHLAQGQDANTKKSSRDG

B1: HGq (ΔN): human Gαq with truncation of N-terminal six amino acids, SEQ ID NO:16 (protein, listed as Homo sapiens)
chain: MACCLSEEAKEARRINDEIERQLRRDKRDARRELKLLLLGTGESGKSTFIKQMRIIHGSGYSDEDKRGFTKLVYQNIFTAMQAMIRAMDTLKIPYKYEHNKAHAQLVREVDVEKVSAFENPYVDAIKSLWNDPGIQECYDRRREYQLSDSTKYYLNDLDRVADPAYLPTQQDVLRVRVPTTGIIEYPFDLQSVIFRMVDVGGQRSERRKWIHCFENVTSIMFLVALSEYDQVLVESDNENRMEESKALFRTIITYPWFQNSSVILFLNKKDLLEEKIMYSHLVDYFPEYDGPQRDAQAAREFILKMFVDLNPDSDKIIYSHFTCATDTENIRFVFAAVKDTILQLNLKEYNAV
B2: MGq (ΔN-HVD-HA)-t5: mouse Gαq ΔN-HVD-HA with C-terminal five amino acids replaced by those of transducin, SEQ ID NO:6 (protein, listed as Mus sp.)
chain: MACCLSEEAKEARRINDEIERHVRRDKRDARRELKLLLLGTGESGKSTFIKQMRIIHGSGYSDEDKRGFTKLVYQNIFTAMQAMIRAMDTLKIPYKYEHNKAHAQLVREVDVEKVSAFDVPDYAAIKSLWNDPGIQECYDRRREYQLSDSTKYYLNDLDRVADPSYLPTQQDVLRVRVPTTGIIEYPFDLQSVIFRMVDVGGQRSERRKWIHCFENVTSIMFLVALSEYDQVLVESDNENRMEESKALFRTIITYPWFQNSSVILFLNKKDLLEEKIMYSHLVDYFPEYDGPQRDAQAAREFILKMFVDLNPDSDKIIYSHFTCATDTENIRFVFAAVKDTILQLNLKDCGLF
modifications: HA tag; transducin C-terminal five residues
B3: MGq (ΔN-HVD-HA)-t44: mouse Gαq ΔN-HVD-HA with C-terminal 44 amino acids of transducin, SEQ ID NO:7 (protein, listed as Mus sp.)
chain: MACCLSEEAKEARRINDEIERHVRRDKRDARRELKLLLLGTGESGKSTFIKQMRIIHGSGYSDEDKRGFTKLVYQNIFTAMQAMIRAMDTLKIPYKYEHNKAHAQLVREVDVEKVSAFDVPDYAAIKSLWNDPGIQECYDRRREYQLSDSTKYYLNDLDRVADPSYLPTQQDVLRVRVPTTGIIEYPFDLQSVIFRMVDVGGQRSERRKWIHCFENVTSIMFLVALSEYDQVLVESDNENRMEESKALFRTIITYPWFQNSSVILFLNKKDLLEEKIMYSHLVDYFPEYDGPQRDAQAAREFILKMFVDLNPDNMRRDVKEIYSHMTCATDTQNVKFVFDAVTDIIIKENLKDCGLF
modifications: HA tag; transducin C-terminal 44 residues
B4: MGq (HV-HA)-t5: mouse Gαq HV-HA with C-terminal five amino acids of transducin, SEQ ID NO:12 (protein, listed as Mus sp.)
chain: MTLESIMACCLSEEAKEARRINDEIERHVRRDKRDARRELKLLLLGTGESGKSTFIKQMRIIHGSGYSDEDKRGFTKLVYQNIFTAMQAMIRAMDTLKIPYKYEHNKAHAQLVREVDVEKVSAFDVPDYAAIKSLWNDPGIQECYDRRREYQLSDSTKYYLNDLDRVADPSYLPTQQDVLRVRVPTTGIIEYPFDLQSVIFRMVDVGGQRSERRKWIHCFENVTSIMFLVALSEYDQVLVESDNENRMEESKALFRTIITYPWFQNSSVILFLNKKDLLEEKIMYSHLVDYFPEYDGPQRDAQAAREFILKMFVDLNPDSDKIIYSHFTCATDTENIRFVFAAVKDTILQLNLKDCGLF
modifications: HA tag; transducin C-terminal five residues
B5: MGq (HVD-HA)-t5: mouse Gαq HVD-HA with C-terminal five amino acids of transducin, SEQ ID NO:13 (protein, listed as Mus sp.)
chain: B4 chain with G66D
modifications: HA tag; transducin C-terminal five residues
B6: HGq: human Gαq protein, SEQ ID NO:15 (protein, listed as Homo sapiens)
chain: MTLESIMACCLSEEAKEARRINDEIERQLRRDKRDARRELKLLLLGTGESGKSTFIKQMRIIHGSGYSDEDKRGFTKLVYQNIFTAMQAMIRAMDTLKIPYKYEHNKAHAQLVREVDVEKVSAFENPYVDAIKSLWNDPGIQECYDRRREYQLSDSTKYYLNDLDRVADPAYLPTQQDVLRVRVPTTGIIEYPFDLQSVIFRMVDVGGQRSERRKWIHCFENVTSIMFLVALSEYDQVLVESDNENRMEESKALFRTIITYPWFQNSSVILFLNKKDLLEEKIMYSHLVDYFPEYDGPQRDAQAAREFILKMFVDLNPDSDKINYSHFTCATDTENIRFVFAAVKDTILQLNLKEYNAV
B7: MGq (ΔN-HVD-HA)-olf5: mouse Gαq ΔN-HVD-HA with C-terminal five amino acids of Gαolf, SEQ ID NO:14 (protein, listed as Mus sp.)
chain: B2 chain with G60D, D349Q, C350Y, G351E, F353L
modifications: HA tag; Gαolf C-terminal five residues

Biological target: T1, bitter receptor mT2R5
Assay: Functional coupling of Gq variants with bitter taste receptor mT2R5 (mammalian cell-based systems and Xenopus oocytes, calcium imaging)
From the text: (§1) The present invention addresses the above described problems associated with using Gα15/α16, as well as other problems known in the art relating to the use of weakly promiscuous Gα proteins. […] According to the invention, the functional coupling can be determined, for example, by measuring changes in intracellular IP3 or calcium. In a particular embodiment, the Gq protein variants can be expressed in mammalian cell lines or Xenopus oocytes, and then evaluated using calcium fluorescence imaging and electrophysiological recording.
(§2) It was found by functional analysis using single-cell calcium imaging that activation of multi-family GPCRs evoked increases in cytosolic calcium in the presence of the Gαq variants with the G66D mutation. These GPCRs include Gαs-coupled β-adrenergic receptor, Gαolf-coupled mouse 17 olfactory receptor, Gαi-coupled m2 muscarinic receptor, and gustducin-coupled bitter receptor mT2R5. No significant change in cytosolic calcium could be detected by activation of the above GPCRs in the absence of the Gαq variants. Additional GPCRs can include those disclosed in U.S. patent application Ser. No. 09/510,332 filed Feb. 22, 2000 now abandoned; and U.S. Provisional Application Nos. 60/213,849 filed Jun. 23, 2000; 60/209,840 filed Jun. 6, 2000; 60/195,536 filed Apr. 7, 2000; 60/195,534 filed Apr. 7, 2000; 60/195,532 filed Apr. 7, 2000; which are herein incorporated by references for all purposes in a manner consistent with this disclosure.
A series of Gαq protein variants having the sequences listed in FIG. 3 were constructed and tested in mammalian cell-based systems and in Xenopus oocytes for functional coupling efficiency with bitter receptor mT2R5 and mouse olfactory receptor 17.

Functional Activity With Taste Receptor MT2R5	Molecule
−	B1
++	B2
++	B3
+	B4
++	B5
−	B6

Biological target: T2, mouse olfactory receptor 17
Assay: Functional coupling of Gq variants with mouse olfactory receptor 17 (mammalian cell-based systems and Xenopus oocytes, calcium imaging)
Set-up: key to the marks not given beside the values
From the text: as §1
as §2, with “7, 2000; which are herein incorporated by references for all purposes in a manner consistent with this disclosure.” left out

Functional Activity with Olfactory Receptor ml7	Molecule
++	B7

Reference: patent US7041457B2, “Gαq protein variants and their use in the analysis and discovery of agonists and antagonists of chemosensory receptors” (Senomyx, Inc., priority 2000, dated 2006)
